Measurements reported in patent publication US9493781B2, “Synthetic brassica-derived chloroplast transit peptides” (DOW AGROSCIENCES LLC, priority 2012, dated 2016).

What was measured:
[1] = system: Arabidopsis; experiment: dgt-28, dgt-32, dgt-33, dgt-3, dgt-7 transformed Arabidopsis (T1, T2, T3) response to postemergence glyphosate, % visual injury; type: in vivo, Arabidopsis thaliana; details: for % Injury Ave / % Injury Range (%) / No. plants with 20-40% injury / No. plants with <20% injury / No. plants with >40% injury: 14 days after application
Excerpt: Transgenic T1 Arabidopsis plants containing the dgt-28 transgene were sprayed with differing rates of glyphosate. Elevated rates were applied in this study to determine the relative levels of resistance (105, 420, 1,680 or 3,360 g ae/ha). A typical 1× usage rate of glyphosate that will control non-transformed Arabidopsis is 420 g ae/ha. […] The T1 Arabidopsis plants that were used in this study were variable copy number for the dgt-28 transgene. The low copy dgt-28 T1 Arabidopsis plants were self-pollinated and used to produce T2 plants.
Results of Glyphosate Selection of Transformed dgt-28 Arabidopsis Plants. The Arabidopsis T1 transformants were first selected from the background of untransformed seed using a glufosinate selection scheme. Three flats or 30,000 seed were analyzed for each T1 construct. The T1 plants selected above were molecularly characterized and representative plants with variable copy number were subsequently transplanted to individual pots and sprayed with various rates of commercial glyphosate as previously described. The response of these plants is presented in terms of % visual injury 2 weeks after treatment (WAT). […] An arithmetic mean and standard deviation is presented for each construct used for Arabidopsis transformation. The range in individual response is also indicated in the last column for each rate and transformation. Wild-type, non-transformed Arabidopsis (c.v. Columbia) served as a glyphosate sensitive control.
T2Arabidopsis Data. The second generation plants (T2) of selected T1 Arabidopsis events which contained low copy numbers of the dgt-28 transgene were further characterized for glyphosate tolerance. Glyphosate was applied as described previously. The response of the plants is presented in terms of % visual injury 2 weeks after treatment (WAT). […] An arithmetic mean and standard deviation are presented for each construct used for Arabidopsis transformation. The range in individual response is also indicated in the last column for each rate and transformation. Wild-type, non-transformed Arabidopsis (cv. Columbia) served as a glyphosate sensitive control. In the T2 generation hemizygous and homozygous plants were available for testing for each event and therefore were included for each rate of glyphosate tested. Hemizygous plants contain two different alleles at a locus as compared to homozygous plants which contain the same two alleles at a locus. Variability of response to glyphosate is expected in the T2 generation as a result of the difference in gene dosage for hemizygous as compared to homozygous plants. The variability in response to glyphosate is reflected in the standard deviation and range of response.
T3 Arabidopsis Data. The third generation plants (T3) of selected T2 Arabidopsis events which contained low copy numbers of the dgt-28 transgene were further characterized for glyphosate tolerance. […] Glyphosate was applied as described previously. The response of the plants is presented in terms of % visual injury 2 weeks after treatment (WAT). […] An arithmetic mean and standard deviation are presented for each construct used for Arabidopsis transformation. The range in individual response is also indicated in the last column for each rate and transformation. Wild-type, non-transformed Arabidopsis (cv. Columbia) served as a glyphosate-sensitive control.

[2] = system: Arabidopsis; experiment: Heritability progeny test of T1 families (T2 plants) with glufosinate, Arabidopsis; type: in vivo, Arabidopsis thaliana; details: progeny test of 100 T2 plants, glufosinate 200 g ae/ha
Excerpt: Heritability. Confirmed transgenic T1 Arabidopsis events were self-pollinated to produce T2 seed. These seed were progeny tested by applying Ignite™ herbicide containing glufosinate (200 g ae/ha) to 100 random T2 siblings. […] The T1 families (T2 plants) segregated in the anticipated 3 Resistant: 1 Sensitive model for a dominantly inherited single locus with Mendelian inheritance as determined by Chi square analysis (P>0.05). […] Seed were collected from 5 to 15 T2 individuals (T3 seed). Twenty-five T3 siblings from each of 3-4 randomly-selected T2 families were progeny tested as previously described.

[3] = Table 8, T1 Arabidopsis, 105 g ae/ha glyphosate
[4] = Table 8, T1 Arabidopsis, 420 g ae/ha glyphosate
[5] = Table 8, T1 Arabidopsis, 1680 g ae/ha glyphosate
[6] = Table 8, T1 Arabidopsis, 3360 g ae/ha glyphosate
[7] = Table 10, T1 Arabidopsis, 1,680 g ae/ha glyphosate
[8] = Table 12, T2 Arabidopsis, 1 copy, 420 g ae/ha glyphosate
[9] = Table 12, T2 Arabidopsis, 1 copy, 840 g ae/ha glyphosate
[10] = Table 12, T2 Arabidopsis, 1 copy, 1680 g ae/ha glyphosate
[11] = Table 12, T2 Arabidopsis, 1 copy, 3360 g ae/ha glyphosate

B1: pDAB105530: TraP5 v2 - dgt-28 v5: binary construct TraP5 v2: dgt-28 v5 (SEQ ID NO:33) (nucleic acid)
DNA: ATGCAACTCCTGAATCAGAGGCAAGCCCTGCGTCTTGGTCGTTCATCTGCTTCAAAGAACCAGCAAGTTGCTCCACTGGCCTCTAGGCCTGCTTCTTCCTTGAGCGTCAGCGCATCCAGCGTCGCACCTGCACCTGCTTGCTCAGCTCCTGCTGGAGCTGGAAGGCGTGCTGTTGTCGTGAGAGCAGCAAGAGGGATGCCAGCCTTGTCTTTACCTGGATCAAAGAGTATCACAGCTAGGGCACTCTTTCTTGCTGCTGCTGCTGATGGGGTTACTACTTTGGTGAGGCCATTGAGAAGTGACGACACAGAAGGATTCGCTGAGGGGTTAGTTCGTTTAGGCTATCGTGTAGGGAGGACACCCGATACTTGGCAAGTCGATGGCAGACCACAAGGACCAGCAGTGGCTGAGGCTGACGTCTACTGTAGAGACGGAGCAACCACCGCTAGATTCTTGCCAACCTTAGCAGCTGCTGGTCACGGAACATACAGATTTGATGCTTCACCACAGATGAGGAGACGTCCTCTTTTGCCCTTAAGCAGAGCCTTGAGGGATTTGGGTGTCGATCTTAGACACGAAGAAGCTGAAGGTCATCACCCTCTGACTGTCCGTGCTGCTGGGGTTGAAGGAGGAGAGGTTACTTTGGATGCTGGTCAGTCAAGTCAGTATCTCACTGCCTTGTTGCTCCTTGGTCCCCTTACAAGACAAGGACTGAGGATAAGGGTTACTGATTTGGTGTCAGCACCATACGTGGAGATTACGCTTGCAATGATGAGGGCTTTCGGAGTTGAAGTGGCAAGGGAGGGAGATGTGTTCGTTGTTCCACCTGGTGGATATCGTGCAACTACGTATGCTATAGAACCCGACGCAAGTACTGCTTCTTACTTCTTCGCAGCTGCTGCTTTGACTCCTGGAGCTGAAGTGACTGTACCTGGGTTAGGCACGGGAGCACTTCAAGGAGATTTGGGATTTGTAGATGTCTTAAGGAGAATGGGAGCCGAGGTGTCCGTAGGAGCTGATGCAACCACTGTTAGAGGAACTGGTGAATTGCGTGGCCTTACAGCCAACATGAGAGACATAAGTGATACGATGCCGACCCTCGCTGCAATAGCACCCTTTGCTAGTGCTCCAGTTAGAATCGAGGATGTTGCCAACACTCGTGTCAAAGAATGTGACAGACTTGAGGCTTGTGCAGAGAACCTTAGGAGGTTGGGAGTAAGGGTTGCAACGGGTCCGGACTGGATTGAGATACACCCTGGTCCAGCTACTGGTGCTCAAGTCACAAGCTATGGTGATCACAGAATTGTGATGTCATTTGCAGTGACTGGACTTCGTGTGCCTGGGATCAGCTTCGACGACCCTGGCTGTGTTCGTAAGACTTTTCCTGGGTTTCACGAGGCTTTCGCAGAATTGAGGCGTGGCATTGGGAGCTGA
modifications: In-frame fusion of dgt-28 v5 and TraP5 v2
Glyphosate tolerance ([1]; T2 Arabidopsis, versus dgt-28 constructs with other TraP transit peptides): did not provide robust tolerance to glyphosate
% Injury Ave [1, 3]: 39.3%
% Injury Range (%) [1, 3]: 8-100%
No. plants with 20-40% injury [1, 3]: 2
No. plants with <20% injury [1, 3]: 2
No. plants with >40% injury [1, 3]: 2
% Injury Ave [1, 4]: 33.0%
% Injury Range (%) [1, 4]: 8-85%
No. plants with 20-40% injury [1, 4]: 4
No. plants with <20% injury [1, 4]: 1
No. plants with >40% injury [1, 4]: 1
% Injury Ave [1, 5]: 47.5%
% Injury Range (%) [1, 5]: 25-85%
No. plants with 20-40% injury [1, 5]: 4
No. plants with <20% injury [1, 5]: 0
No. plants with >40% injury [1, 5]: 2
% Injury Ave [1, 6]: 76.7%
% Injury Range (%) [1, 6]: 50-85%
No. plants with 20-40% injury [1, 6]: 0
No. plants with <20% injury [1, 6]: 0
No. plants with >40% injury [1, 6]: 6
% Injury Ave [1, 7]: 47.5%
% Injury Range (%) [1, 7]: 25-85%
No. plants with 20-40% injury [1, 7]: 4
No. plants with <20% injury [1, 7]: 0
No. plants with >40% injury [1, 7]: 2
% Injury Ave [1, 8]: 75.0%
% Injury Range (%) [1, 8]: 50-90%
No. plants with 20-40% injury [1, 8]: 0
No. plants with <20% injury [1, 8]: 0
No. plants with >40% injury [1, 8]: 4
% Injury Ave [1, 9]: 80.0%
% Injury Range (%) [1, 9]: 50-90%
No. plants with 20-40% injury [1, 9]: 0
No. plants with <20% injury [1, 9]: 0
No. plants with >40% injury [1, 9]: 4
% Injury Ave [1, 10]: 75.0%
% Injury Range (%) [1, 10]: 60-85%
No. plants with 20-40% injury [1, 10]: 0
No. plants with <20% injury [1, 10]: 0
No. plants with >40% injury [1, 10]: 4
% Injury Ave [1, 11]: 76.3%
% Injury Range (%) [1, 11]: 70-80%
No. plants with 20-40% injury [1, 11]: 0
No. plants with <20% injury [1, 11]: 0
No. plants with >40% injury [1, 11]: 4
T1 Families Tested Segregating at 1 Locus (%) [2]: 100%
